This test addresses T1, BSA V (Sigma Co.) (bovine, UniProt P02769 25-607).
T1 construct: Negative control of the ELISA; also called BSA control; bovine serum albumin
Description: ELISA on plated matrix protein, anti-FITC/biotin, streptavidin/HRP, chemiluminescence on film. The protocol:
An ELISA (Enzyme-linked Immunosorbant Assay) was used to measure binding of zsig37 to various matrix proteins and complement C1q. The matrix proteins used were Bovine Collagen Type I (Becton Dickinson, Lincoln Park, N.J.) laminin, vitronectin, fibronectin, human collagen Types II, III, IV, V, VI (Chemicon International, Temecula, Calif.). BSA V (Sigma Co.) was used as a negative control. Just prior to use, the proteins were diluted in 2×PBS (Phosphate Buffered Saline, Sigma Co.) to 100 μg/ml and adjusted to pH 7.2 with 0.1 N NaOH. Each protein sample was quadruplicate plated (100 μl/well) into a 96 well plate. The plate was allowed to dry overnight in a laminar flow hood and washed 3 times with 400 μl of 5 mg/ml BSA in 1×PBS and blotted dry. Zsig37 was FITC labeled according to manufacturer's instruction (Pierce, Rockford, Ill.). Into each well was added 100 μl of 1.8 μg/ml zsig37-FITC in 5% BSA, PBS. The plates were incubated for 1.5 hours at room temperature then washed 3 time with 5% BSA, PBS. To each well was then added 100 μl of 1:400 mouse anti-FITC/Biotin (Sigma Co.). The plate was incubated 1.5 hours at room temperature and washed 3 times with 5% BSA, PBS. The plate was then incubated with 100 μl of 1:1000 streptavidin/HRP (Amersham, Piscataway, N.J.) for 1 hour and washed 3 times with 5% BSA, PBS. […]
(In general: An ELISA detects its analyte on a solid surface through an enzyme-linked reagent.)

T1 sequence (P02769 25-607 limits assumed): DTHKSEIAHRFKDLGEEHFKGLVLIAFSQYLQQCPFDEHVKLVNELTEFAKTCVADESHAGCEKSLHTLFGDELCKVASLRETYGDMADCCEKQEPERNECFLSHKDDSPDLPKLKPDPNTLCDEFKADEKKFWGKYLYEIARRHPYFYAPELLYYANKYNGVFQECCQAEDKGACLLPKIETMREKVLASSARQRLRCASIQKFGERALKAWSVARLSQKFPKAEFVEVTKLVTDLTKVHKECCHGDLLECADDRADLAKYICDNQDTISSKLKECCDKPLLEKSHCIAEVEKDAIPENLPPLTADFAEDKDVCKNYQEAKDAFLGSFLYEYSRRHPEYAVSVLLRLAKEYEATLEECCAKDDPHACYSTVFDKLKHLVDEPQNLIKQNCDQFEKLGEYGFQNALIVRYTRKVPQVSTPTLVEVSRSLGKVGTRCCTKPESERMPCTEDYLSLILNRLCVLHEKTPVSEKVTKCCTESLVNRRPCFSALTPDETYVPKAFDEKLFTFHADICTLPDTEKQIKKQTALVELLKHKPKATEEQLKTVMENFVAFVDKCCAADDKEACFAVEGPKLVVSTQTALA

B1: zsig37-FITC (ligand)
chain: LVLSRVPHVQGEQQEWEGTEELPSPPDHAERAEEQHEKYRPSQDQGLPASRCLRCCDPGTSMYPATAVPQINITILKGEKGDRGDRGLQGKYGKTGSAGARGHTGPKGQKGSMGAPGERCKSHYAAFSVGRKKPMHSNHYYQTVIFDTEFVNLYDHFNMFTGKFYCYVPGLYFFSLNVHTWNQKETYLHIMKNEEEVVILFAQVGDRSIMQSQSLMLELREQDQVWVRLYKGERENAIFSEELDTYITFSGYLVKHATEP
modifications: FITC label (sites not given)
notes: 22-281 is used here; also called FITC labeled zsig37; FITC tagged Zsig37 protein
Consider B1, for which the binding result is listed as “no binding (tested: 1.8 µg/ml zsig37-FITC)”.
